Laboratory results: patent publication US20240182536A1 (MURAL ONCOLOGY, published 2024)
Where two headings read alike, the source gives them in different places.

T1: human IL-18 receptor alpha (IL-18Rα) (human, UniProt Q13478 19-329, limits assumed)
T1 construct: also called hu IL-18Ra; IL-18R alpha
T1 sequence (looked up): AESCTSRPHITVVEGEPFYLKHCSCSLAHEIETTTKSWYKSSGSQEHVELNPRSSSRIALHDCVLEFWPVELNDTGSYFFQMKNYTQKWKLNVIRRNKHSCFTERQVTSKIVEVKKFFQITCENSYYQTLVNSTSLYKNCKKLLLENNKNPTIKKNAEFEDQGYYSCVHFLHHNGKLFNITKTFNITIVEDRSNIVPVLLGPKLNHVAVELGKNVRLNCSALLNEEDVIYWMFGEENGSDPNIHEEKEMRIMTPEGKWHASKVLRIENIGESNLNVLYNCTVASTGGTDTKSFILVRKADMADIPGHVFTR

T2: human IL-18R alpha/beta pair (IL-18Rab) (human, UniProt Q13478 19-329; O95256 20-356)
T2 construct: also called hu IL-18Rab
T2 sequence (looked up) 1: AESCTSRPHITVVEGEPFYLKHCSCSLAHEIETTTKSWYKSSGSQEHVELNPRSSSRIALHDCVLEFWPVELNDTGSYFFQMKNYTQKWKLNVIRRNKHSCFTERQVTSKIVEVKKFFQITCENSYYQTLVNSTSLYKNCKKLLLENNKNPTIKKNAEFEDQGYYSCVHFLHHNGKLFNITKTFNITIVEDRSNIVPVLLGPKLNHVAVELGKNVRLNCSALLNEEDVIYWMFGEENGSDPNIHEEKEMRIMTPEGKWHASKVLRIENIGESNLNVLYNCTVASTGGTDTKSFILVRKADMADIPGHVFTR
T2 sequence (looked up) 2: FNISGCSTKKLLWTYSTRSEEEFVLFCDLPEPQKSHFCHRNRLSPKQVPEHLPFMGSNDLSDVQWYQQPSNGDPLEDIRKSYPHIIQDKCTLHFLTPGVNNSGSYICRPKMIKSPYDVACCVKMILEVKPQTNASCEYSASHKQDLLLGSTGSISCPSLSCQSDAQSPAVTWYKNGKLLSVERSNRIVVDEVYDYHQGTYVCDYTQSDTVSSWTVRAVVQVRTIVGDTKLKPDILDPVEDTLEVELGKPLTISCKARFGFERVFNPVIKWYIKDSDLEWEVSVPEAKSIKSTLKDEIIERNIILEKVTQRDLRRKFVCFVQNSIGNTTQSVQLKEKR

T3: human IL-18 binding protein (IL-18BP) (human, UniProt O95998 31-194)
T3 construct: also called hu IL-18BP; hIL18BP
T3 sequence (looked up): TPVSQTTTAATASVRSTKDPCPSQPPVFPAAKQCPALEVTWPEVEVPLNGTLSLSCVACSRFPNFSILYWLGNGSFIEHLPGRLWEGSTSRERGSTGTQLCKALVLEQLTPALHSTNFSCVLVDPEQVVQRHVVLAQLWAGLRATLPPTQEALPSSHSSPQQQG

T4: IL-18 receptors on HEK-Blue IL-18 reporter cells (InvivoGen) (UniProt Q13478 19-541; O95256 20-599)
T4 sequence (looked up) 1: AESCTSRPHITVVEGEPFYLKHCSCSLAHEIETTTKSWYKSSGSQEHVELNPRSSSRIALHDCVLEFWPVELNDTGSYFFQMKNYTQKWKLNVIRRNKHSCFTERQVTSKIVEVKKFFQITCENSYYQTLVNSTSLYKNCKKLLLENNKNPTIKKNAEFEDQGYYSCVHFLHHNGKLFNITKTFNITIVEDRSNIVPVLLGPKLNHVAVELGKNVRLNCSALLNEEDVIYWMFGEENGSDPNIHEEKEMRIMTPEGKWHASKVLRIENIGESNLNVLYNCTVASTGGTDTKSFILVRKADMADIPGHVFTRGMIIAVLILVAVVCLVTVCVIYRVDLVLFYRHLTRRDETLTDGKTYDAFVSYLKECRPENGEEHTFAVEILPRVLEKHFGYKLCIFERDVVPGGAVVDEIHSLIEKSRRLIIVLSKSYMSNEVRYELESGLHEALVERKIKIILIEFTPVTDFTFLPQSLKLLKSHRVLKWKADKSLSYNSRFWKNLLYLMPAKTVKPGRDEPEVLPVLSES
T4 sequence (looked up) 2: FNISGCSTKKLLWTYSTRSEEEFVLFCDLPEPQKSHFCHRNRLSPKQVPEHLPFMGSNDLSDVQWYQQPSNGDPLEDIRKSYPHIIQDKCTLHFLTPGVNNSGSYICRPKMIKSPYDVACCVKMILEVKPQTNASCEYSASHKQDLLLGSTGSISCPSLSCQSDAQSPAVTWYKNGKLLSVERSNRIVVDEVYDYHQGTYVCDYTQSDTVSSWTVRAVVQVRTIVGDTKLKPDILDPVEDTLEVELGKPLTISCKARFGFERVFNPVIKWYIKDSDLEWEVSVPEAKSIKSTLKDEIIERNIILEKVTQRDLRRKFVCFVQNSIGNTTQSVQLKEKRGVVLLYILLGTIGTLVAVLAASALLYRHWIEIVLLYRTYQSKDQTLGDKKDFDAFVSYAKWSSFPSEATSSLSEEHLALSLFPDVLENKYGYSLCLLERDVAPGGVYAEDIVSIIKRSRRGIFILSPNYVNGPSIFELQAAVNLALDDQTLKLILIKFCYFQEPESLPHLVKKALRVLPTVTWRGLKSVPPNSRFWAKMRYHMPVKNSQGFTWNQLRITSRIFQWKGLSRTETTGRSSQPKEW

T5: IL-18 receptor (IL-18Rα and IL-18Rβ) (UniProt Q13478 19-541; O95256 20-599, limits assumed)
T5 sequence (looked up) 1: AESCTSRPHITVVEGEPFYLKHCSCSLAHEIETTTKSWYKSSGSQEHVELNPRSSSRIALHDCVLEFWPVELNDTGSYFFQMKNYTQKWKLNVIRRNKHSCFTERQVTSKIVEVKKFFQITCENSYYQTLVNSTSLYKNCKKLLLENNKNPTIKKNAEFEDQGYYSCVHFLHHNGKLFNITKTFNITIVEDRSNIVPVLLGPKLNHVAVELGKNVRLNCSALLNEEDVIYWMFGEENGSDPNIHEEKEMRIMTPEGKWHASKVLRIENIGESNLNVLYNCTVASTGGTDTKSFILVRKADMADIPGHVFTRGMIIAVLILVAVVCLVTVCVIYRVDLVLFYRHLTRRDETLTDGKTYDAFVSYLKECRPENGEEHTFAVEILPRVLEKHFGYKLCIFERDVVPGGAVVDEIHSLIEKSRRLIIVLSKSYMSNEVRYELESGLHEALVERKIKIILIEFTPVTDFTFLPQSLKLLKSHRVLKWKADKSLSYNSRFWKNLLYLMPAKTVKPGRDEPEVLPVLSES
T5 sequence (looked up) 2: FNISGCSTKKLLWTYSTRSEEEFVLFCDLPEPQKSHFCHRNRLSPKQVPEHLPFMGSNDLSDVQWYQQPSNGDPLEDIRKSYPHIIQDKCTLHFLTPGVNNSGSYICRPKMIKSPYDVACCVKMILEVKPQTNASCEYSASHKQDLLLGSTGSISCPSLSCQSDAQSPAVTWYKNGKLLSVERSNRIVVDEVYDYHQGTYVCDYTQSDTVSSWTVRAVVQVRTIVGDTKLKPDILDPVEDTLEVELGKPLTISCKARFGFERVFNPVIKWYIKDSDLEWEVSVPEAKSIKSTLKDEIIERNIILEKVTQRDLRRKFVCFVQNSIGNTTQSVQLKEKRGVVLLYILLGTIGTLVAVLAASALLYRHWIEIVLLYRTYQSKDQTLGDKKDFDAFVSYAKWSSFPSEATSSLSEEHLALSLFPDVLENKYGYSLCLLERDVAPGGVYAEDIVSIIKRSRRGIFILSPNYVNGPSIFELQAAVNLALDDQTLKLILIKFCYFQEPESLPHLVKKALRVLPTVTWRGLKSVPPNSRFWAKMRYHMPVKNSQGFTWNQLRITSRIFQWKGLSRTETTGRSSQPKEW

T6: interleukin 18 binding protein (IL-18BP) (UniProt O95998 31-194)
T6 sequence (looked up): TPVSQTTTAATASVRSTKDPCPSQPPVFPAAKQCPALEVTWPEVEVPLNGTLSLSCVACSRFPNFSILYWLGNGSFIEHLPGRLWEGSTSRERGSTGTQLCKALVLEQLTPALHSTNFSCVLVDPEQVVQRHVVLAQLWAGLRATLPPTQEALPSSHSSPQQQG


What was measured:
[1] = target: T1, human IL-18 receptor alpha (IL-18Rα); test: Octet BLI
[2] = target: T2, human IL-18R alpha/beta pair (IL-18Rab); test: Octet BLI
[3] = target: T3, human IL-18 binding protein (IL-18BP); test: Octet BLI
[4] = target: T1, human IL-18 receptor alpha (IL-18Rα); test: Octet BLI; remark: listed apart in the source
Procedure: (§1) Octet 96red instrument was used to determine affinities of IL18 proteins to BP or receptors. 5-10 ug/ml analyte proteins were used for loading on Sartorius tips (AHC or SA). […] 120-180 s loading, 200 s association and 800 s dissociation were used for kinetics. 3-7 data points were used to calculate affinities.

[5] = target: T2, human IL-18R alpha/beta pair (IL-18Rab); test: Octet BLI; remark: listed apart in the source
Procedure: as §1

[6] = target: T3, human IL-18 binding protein (IL-18BP); test: Octet BLI; remark: listed apart in the source
Procedure: as §1

[7] = target: T3, human IL-18 binding protein (IL-18BP); test: cell-based or functional assay
[8] = target: T4, IL-18 receptors on HEK-Blue IL-18 …; test: cell-based or functional assay
[9] = target: T5, IL-18 receptor (IL-18Rα and IL-18Rβ); test: cell-based or functional assay
[10] = target: T3, human IL-18 binding protein (IL-18BP); test: cell-based or functional assay; remark: listed apart in the source
[11] = target: T3, human IL-18 binding protein (IL-18BP); test: cell-based or functional assay; remark: listed apart in the source
[12] = target: T4, IL-18 receptors on HEK-Blue IL-18 …; test: cell-based or functional assay; remark: listed apart in the source
[13] = target: T3, human IL-18 binding protein (IL-18BP); test: cell-based or functional assay; remark: listed apart in the source
[14] = target: T4, IL-18 receptors on HEK-Blue IL-18 …; test: cell-based or functional assay; remark: listed apart in the source
[15] = target: T6, interleukin 18 binding protein (IL-18BP); test: cell-based or functional assay
[16] = target: T5, IL-18 receptor (IL-18Rα and IL-18Rβ); test: cell-based or functional assay; remark: listed apart in the source

Binder | Kd [1] [nM] | Kd [2] [nM] | Kd [3] [nM] | Kd [4] [nM] | Kd [5] [nM] | Kd [6] [nM] | HEK-Blue Activity Assay Ec50 (pM), +50 nM hu IL-18BP [7] [pM] | HEK-Blue Activity Assay Ec50 (pM), -hu IL-18BP [8] [pM] | EC50 pM, IFN gamma expression in PBMCs, no BP [9] [pM] | EC50 pM, IFN gamma expression in PBMCs, + 300 nM BP [10] [pM] | Fold Change (BP/NO BP), 50 nM BP [11] [fold] | Fold Change (BP/NO BP), 300 nM BP [11] [fold] | HEK-Blue EC50 pM, +50 nM BP [11] [pM] | HEK-blue EC50 (pM) + 300 nM BP [11] [pM] | HEK-Blue EC50 pM, NO BP (50 nM BP run) [12] [pM] | HEK-Blue EC50 pM, NO BP (300 nM BP run) [12] [pM] | HEK-Blue Activity Assay Ec50 (pM), +300 nM hu IL-18BP [13] [pM] | HEK-Blue Activity Assay Ec50 (pM), -hu IL-18BP [14] [pM] | EC50 (pM), PBMC IFN gamma assay, + 300 nM BP [15] [pM] | EC50 (pM), PBMC IFN gamma assay [16] [pM]
IL-18 variant G3T, M60K, D157E (ligand) YFTKLESKLSVIRNLNDQVLFIDQGNRPLFEDMTDSDMRDNAPRTIFIISMYKDSQPRGKAVTISVKSEKISTLSSENKIISFKEMNPPDNIKDTKSDIIFFQRSVPGHDNKMQFESSSYEGYFLASEKERDLFKLILKKEDELGDRSIMFTVQNEE | 693 | 0.1 | 686 | 693 | 0.1 | 686 | 0.65 | 0.62 | 127 | 323 | 1.05 | 3.69 | 0.65 | 2.77 | 0.62 | 0.75 | 2.77 | 0.75 | – | –
IL-18 variant G3V, M60K (ligand) YFVKLESKLSVIRNLNDQVLFIDQGNRPLFEDMTDSDMRDNAPRTIFIISMYKDSQPRGKAVTISVKSEKISTLSSENKIISFKEMNPPDNIKDTKSDIIFFQRSVPGHDNKMQFESSSYEGYFLASEKERDLFKLILKKEDELGDRSIMFTVQNED | 41 | 0.07 | 91 | 41 | 0.07 | 91 | 0.16 | 0.12 | 14.9 | 14.4 | 1.25 | 3.25 | 0.16 | 0.59 | 0.12 | 0.18 | 0.59 | 0.18 | – | –
Comparator 1 (ligand) YFGKLESKLSVIRNLNDQVLFIDQGNRPLFEDMTDSDCRDNAPRTIFIISKYSDSLARGLAVTISVKCEKISTLSCENKIISFKEMNPPDNIKDTKSDIIFFQRDVPGHSRKMQFESSSYEGYFLACEKERDLFKLILKKEDELGDRSIMFTVQNED | – | – | – | – | – | – | – | – | – | – | – | – | – | – | – | – | – | – | 8.78 | 4.86
